We go through three molecules from patent publication US20230295571A1, “COMPOSITIONS AND METHODS FOR STEM CELL CHONDROGENESIS” (Washington University, priority 2020, published 2023).

One experiment addresses VEGFR2 (Homo sapiens, UniProt P35968). Conditions: cell-free assays; cited from earlier work.
The subject of experiment [1] is hiPSC chondrogenic pellets. In words: RT-qPCR of pellets treated with WNT ligands. The experiment is classed as cell-based, human. The protocol: (§1) WNT ligands treatment during chondrogenesis. For WNT ligands treatment during chondrogenesis, pellets were treated with either 10 ng ml^−1 TGF-β3 (control group) or a combination of 10 ng ml^−1 TGF-β3 and 100 ng ml^−1 individual WNT ligand (WNT2B, WNT3A, WNT4, WNT5B, or WNT7B, all from R&D system) in chondrogenic medium from d0 to d42 as appropriate. For WNT ligands treatment during the Cp stage, cells were supplemented with either 20 ng ml^−1 BMP4 (R&D Systems, #314-BP-010) alone (control group), a combination of 20 ng ml^−1 BMP4 and 1 μM WNT-059, or a combination of 20 ng ml^−1 BMP4 and 100 ng ml^−1 WNT3A (R&D Systems, #5036-WN-010) in mesodermal differentiation medium from d7 to d12.
RT-qPCR. RNA of the pellets was isolated using the Total RNA Purification Kit according to the manufacture's protocol (Norgen Biotek, #37500). Reverse transcription of the RNA was performed using SuperScript VILO Master Mix (Thermo Fisher, #11755050). Fast SYBR Green Master Mix (Thermo Fisher, #4385614) was used for reverse transcription-quantitative polymerase chain reaction (RT-qPCR) according to the manufacturer's instructions on the QuantStudio 3 (Thermo Fisher). Gene expression was analyzed using the ΔΔCT method relative to undifferentiated hiPSCs with the reference gene TATA-box-binding protein (TBP).
For orientation: Quantitative PCR measures a nucleic acid by following its amplification.

Experiment [2] relates to hiPSC chondrogenic pellets. In words: Immunohistochemistry of collagens in pellets. The experiment is classed as cell-based, human. Conditions: pellet culture. Here is the method:
as §1
Immunohistochemistry. Histologic sections (8 μm thick) of the pellets were rinsed with xylenes three times and rehydrated before labeling. Antigen retrieval was performed with 0.02% proteinase K for 3 min at 37° C. for COL2A1 and COL6A1 and with pepsin for 5 min at room temperature for COL1A1 and COL10A1 followed by peroxidase quench then serum blocking for 30 min at room temperature. […]

For experiment [3], the system named is CD146/CD166+ cells at the Cp stage. In words: FACS for progenitors at the Cp stage. The experiment is classed as cell-based, human. Conditions: with BMP4, 1 μM WNT-C59 or 100 ng/ml WNT3A. The protocol: as §1
FACS for progenitors. […] Data were analyzed using FlowJo software (version 10.5.3).

Experiment [4] relates to hiPSC chondrogenic pellets. As to the kind of experiment: Biochemical analysis of cartilaginous matrix production (GAG/DNA) in hiPSC chondrogenic pellets. The experiment is classed as cell-based, human. To be noted: 100 ng/ml WNT ligand + TGF-β3 vs TGF-β3 only. Here is the method:
Chondrogenic differentiation. Cells dissociated at the Cp stage were resuspended at 5×10^5 cells per mL in chondrogenic medium consisting of DMEM/F-12, 1% FBS, 1% ITS+, 55 μM β-mertcaptoethanol, 100 nM dexamethasone (DEX; Sigma-Aldrich, #D4902), 1% NEAA (Gibco, #11140050), 1% P/S, 10 ng ml^−1 human transforming growth factor-beta 3 (TGF-β3; R&D Systems, #243-B3-010), 50 μg ml^−1 L-ascorbic acid 2-phosphate (ascorbate; Sigma-Aldrich, #A8960), and 40 μg ml^−1 L-Proline (proline; Sigma-Aldrich, #P5607). Cells were then centrifuged for 5 min at 300×g to form a pellet. Chondrogenic pellets were cultured at 37° C. for up to the timepoints required for various experiments.
WNT-C59 and ML329 treatment for WNT and MITF inhibition. For WNT-C59 treatment for WNT inhibition during chondrogenesis, pellets were treated with either 10 ng ml^−1 TGF-β3 (control group) or a combination of 10 ng ml^−1 TGF-β3 and 1 μM WNT-C59 in a chondrogenic medium from d0 to d42 as appropriate. […]
Biochemical analysis of cartilaginous matrix production. […] GAG content, as calculated based on the standard curve, was normalized to double-stranded DNA content to obtain the GAG/DNA ratio.

Chain of VEGFR2 (P35968 20-1356, species assumed): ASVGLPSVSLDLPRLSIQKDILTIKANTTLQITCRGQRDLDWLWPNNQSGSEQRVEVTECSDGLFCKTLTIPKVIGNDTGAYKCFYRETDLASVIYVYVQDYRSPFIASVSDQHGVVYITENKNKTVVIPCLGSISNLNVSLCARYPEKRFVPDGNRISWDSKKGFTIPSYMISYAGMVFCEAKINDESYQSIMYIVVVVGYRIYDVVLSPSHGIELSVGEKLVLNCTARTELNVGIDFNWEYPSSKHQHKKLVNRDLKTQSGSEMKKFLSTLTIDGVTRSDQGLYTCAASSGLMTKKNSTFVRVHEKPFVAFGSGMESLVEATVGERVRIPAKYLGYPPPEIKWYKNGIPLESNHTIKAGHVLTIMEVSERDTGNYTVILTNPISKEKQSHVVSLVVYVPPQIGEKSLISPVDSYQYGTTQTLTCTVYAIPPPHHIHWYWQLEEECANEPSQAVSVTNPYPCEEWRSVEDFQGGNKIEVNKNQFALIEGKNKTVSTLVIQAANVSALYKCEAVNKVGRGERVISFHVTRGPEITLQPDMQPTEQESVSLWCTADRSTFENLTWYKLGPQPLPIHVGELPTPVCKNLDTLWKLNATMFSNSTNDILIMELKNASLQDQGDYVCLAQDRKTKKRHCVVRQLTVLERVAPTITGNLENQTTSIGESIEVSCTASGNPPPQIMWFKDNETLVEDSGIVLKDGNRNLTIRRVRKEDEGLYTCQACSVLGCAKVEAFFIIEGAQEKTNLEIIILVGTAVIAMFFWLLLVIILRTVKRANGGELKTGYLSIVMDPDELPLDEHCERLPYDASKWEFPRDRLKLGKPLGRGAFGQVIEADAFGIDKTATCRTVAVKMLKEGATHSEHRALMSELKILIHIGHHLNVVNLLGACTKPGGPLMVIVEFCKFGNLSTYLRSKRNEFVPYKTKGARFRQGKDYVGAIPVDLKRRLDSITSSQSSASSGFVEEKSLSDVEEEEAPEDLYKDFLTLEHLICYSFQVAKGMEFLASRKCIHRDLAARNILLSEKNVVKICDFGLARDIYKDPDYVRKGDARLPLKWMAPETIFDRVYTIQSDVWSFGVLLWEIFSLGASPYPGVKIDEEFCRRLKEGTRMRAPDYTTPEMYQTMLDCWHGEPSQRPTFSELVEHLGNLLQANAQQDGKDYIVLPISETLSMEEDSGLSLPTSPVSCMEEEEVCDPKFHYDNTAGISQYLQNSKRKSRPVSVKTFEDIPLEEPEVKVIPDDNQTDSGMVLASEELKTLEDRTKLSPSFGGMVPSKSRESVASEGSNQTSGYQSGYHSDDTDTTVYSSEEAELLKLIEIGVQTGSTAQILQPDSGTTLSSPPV

By IC50 is commonly meant the concentration that gives 50% inhibition. Take `CCN(CC)CCCCNc1ncc2cc(-c3cc(OC)cc(OC)c3)c(NC(=O)NC(C)(C)C)nc2n1` [PD173074]: the half-maximal inhibitory concentration (IC50) at VEGFR2 is 100 to 200 nM.

B1: WNT3A: WNT ligand (R&D Systems) added at 100 ng/ml (protein, UniProt P56704 19-352, looked up)
Protein Wnt-3a: SYPIWWSLAVGPQYSSLGSQPILCASIPGLVPKQLRFCRNYVEIMPSVAEGIKIGIQECQHQFRGRRWNCTTVHDSLAIFGPVLDKATRESAFVHAIASAGVAFAVTRSCAEGTAAICGCSSRHQGSPGKGWKWGGCSEDIEFGGMVSREFADARENRPDARSAMNRHNNEAGRQAIASHMHLKCKCHGLSGSCEVKTCWWSQPDFRAIGDFLKDKYDSASEMVVEKHRESRGWVETLRPRYTYFKVPTERDLVYYEASPNFCEPNPETGSFGTRDRTCNVSSHGIDGCDLLCCGRGHNARAERRREKCRCVFHWCCYVSCQECTRVYDVHTCK
On to B1, for which the “COL2A1, COL1A1, and COL10A1 expression” value in experiment [1] (100 ng/ml WNT ligand + TGF-β3 vs TGF-β3 pellets) is “increased”. Besides, in experiment [2], the “COL1A1 and COL10A1 staining/production” value is listed as “higher intensity”. Also, the “percentage of CD146/CD166+ cells” value in experiment [3] is “increased”. Also, the GAG/DNA ratio entry in experiment [4] was “significantly decreased”.

B2: WNT7B: WNT ligand (R&D system) added at 100 ng/ml (protein, UniProt P56706 25-349, looked up)
Protein Wnt-7b: ALSSVVALGANIICNKIPGLAPRQRAICQSRPDAIIVIGEGAQMGINECQYQFRFGRWNCSALGEKTVFGQELRVGSREAAFTYAITAAGVAHAVTAACSQGNLSNCGCDREKQGYYNQAEGWKWGGCSADVRYGIDFSRRFVDAREIKKNARRLMNLHNNEAGRKVLEDRMQLECKCHGVSGSCTTKTCWTTLPKFREVGHLLKEKYNAAVQVEVVRASRLRQPTFLRIKQLRSYQKPMETDLVYIEKSPNYCEEDAATGSVGTQGRLCNRTSPGADGCDTMCCGRGYNTHQYTKVWQCNCKFHWCCFVKCNTCSERTEVFTCK
Turning to B2, the “chondrogenic markers (SOX9, ACAN, COL2A1) and osteogenic marker (COL1A1)” value in experiment [1] (100 ng/ml WNT ligand + TGF-β3 vs TGF-β3 only) was “significantly decreased”. Further, in experiment [1] (100 ng/ml WNT ligand, relative to TGF-β3 pellets), the “expression of MITF” value is given as “significantly lower”.
